In IntAct's records for PubMed 29039417:

B1: BBSome complex member BBS5 (Homo sapiens), Q8N3I7 (parent)
chain: MSVLDALWEDRDVRFDLSAQQMKTRPGEVLIDCLDSIEDTKGNNGDRGRLLVTNLRILWHSLALSRVNVSVGYNCILNITTRTANSKLRGQTEALYILTKCNSTRFEFIFTNLVPGSPRLFTSVMAVHRAYETSKMYRDFKLRSALIQNKQLRLLPQEHVYDKINGVWNLSSDQGNLGTFFITNVRIVWHANMNDSFNVSIPYLQIRSIKIRDSKFGLALVIESSQQSGGYVLGFKIDPVEKLQESVKEINSLHKVYSASPIFGVDYEMEEKPQPLEALTVEQIQDDVEIDSDGHTDAFVAYFADGNKQQDREPVFSEELGLAIEKLKDGFTLQGLWEVMS
partner: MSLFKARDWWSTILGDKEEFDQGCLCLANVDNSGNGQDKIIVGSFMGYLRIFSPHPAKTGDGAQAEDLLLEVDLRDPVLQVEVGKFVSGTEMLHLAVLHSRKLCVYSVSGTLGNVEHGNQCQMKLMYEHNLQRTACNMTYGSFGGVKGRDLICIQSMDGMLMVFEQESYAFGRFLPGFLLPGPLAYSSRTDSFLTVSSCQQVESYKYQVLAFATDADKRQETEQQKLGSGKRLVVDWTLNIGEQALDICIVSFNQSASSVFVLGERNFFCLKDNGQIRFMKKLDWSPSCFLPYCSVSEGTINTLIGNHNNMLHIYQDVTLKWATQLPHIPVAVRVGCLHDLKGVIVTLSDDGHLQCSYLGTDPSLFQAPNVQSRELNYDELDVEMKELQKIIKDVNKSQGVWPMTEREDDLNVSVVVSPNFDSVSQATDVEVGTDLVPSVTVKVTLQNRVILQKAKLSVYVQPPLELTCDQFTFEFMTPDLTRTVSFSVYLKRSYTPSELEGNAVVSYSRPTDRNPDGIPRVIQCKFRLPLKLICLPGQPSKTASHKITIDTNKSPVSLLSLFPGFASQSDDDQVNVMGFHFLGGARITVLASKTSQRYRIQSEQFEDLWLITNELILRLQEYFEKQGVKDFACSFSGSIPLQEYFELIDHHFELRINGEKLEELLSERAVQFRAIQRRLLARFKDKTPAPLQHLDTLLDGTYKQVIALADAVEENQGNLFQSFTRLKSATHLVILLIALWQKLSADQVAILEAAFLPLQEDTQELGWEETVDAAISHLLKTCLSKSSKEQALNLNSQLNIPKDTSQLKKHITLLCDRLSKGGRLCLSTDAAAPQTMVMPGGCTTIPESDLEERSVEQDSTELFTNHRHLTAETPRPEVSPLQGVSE

Variants of: B1
Details: with pthb1_human BBS9, Q3SYG4
For S86K, the “effect of a mutation on the interaction” value was “with no effect”.
In the case of K87A, the “effect of a mutation on the interaction” value is reported as “with no effect”.
K87E was tested, and the “effect of a mutation on the interaction” value was “with no effect”.
In the case of L88A, the “effect of a mutation on the interaction” value is reported as “with no effect”.
For L88E, the “effect of a mutation on the interaction” value was “with no effect”.
For L88K, the “effect of a mutation on the interaction” value was “with no effect”.
For R89A, the “effect of a mutation on the interaction” value was “with no effect”.
For R89E, the “effect of a mutation on the interaction” value was “with no effect”.
R89K was tested, and the “effect of a mutation on the interaction” value was “with no effect”.
G90A was tested, and the “effect of a mutation on the interaction” value was “with no effect”.
For G90E, the “effect of a mutation on the interaction” value was “with no effect”.
With G90K the “effect of a mutation on the interaction” value was “with no effect”.
With Q91A the “effect of a mutation on the interaction” value was “with no effect”.
In the case of Q91E, the “effect of a mutation on the interaction” value is reported as “with no effect”.
In the case of Q91K, the “effect of a mutation on the interaction” value is reported as “with no effect”.
In the case of T92A, the “effect of a mutation on the interaction” value is reported as “with no effect”.
In the case of T92E, the “effect of a mutation on the interaction” value is reported as “with no effect”.
For T92K, the “effect of a mutation on the interaction” value was “with no effect”.
With E93A the “effect of a mutation on the interaction” value was “with no effect”.
In the case of E93K, the “effect of a mutation on the interaction” value is reported as “with no effect”.
For A94E, the “effect of a mutation on the interaction” value was “with no effect”.
In the case of A94K, the “effect of a mutation on the interaction” value is reported as “with no effect”.
With L95A the “effect of a mutation on the interaction” value was “with no effect”.
With L95E the “effect of a mutation on the interaction” value was “disrupting interaction strength”.
L95K was tested, and the “effect of a mutation on the interaction” value was “with no effect”.
For Y96A, the “effect of a mutation on the interaction” value was “with no effect”.
Y96E was tested, and the “effect of a mutation on the interaction” value was “with no effect”.
Y96K was tested, and the “effect of a mutation on the interaction” value was “with no effect”.
I97A was tested, and the “effect of a mutation on the interaction” value was “with no effect”.
For I97E, the “effect of a mutation on the interaction” value was “with no effect”.
With I97K the “effect of a mutation on the interaction” value was “disrupting interaction strength”.
With L98A the “effect of a mutation on the interaction” value was “with no effect”.
For L98E, the “effect of a mutation on the interaction” value was “with no effect”.
L98K was tested, and the “effect of a mutation on the interaction” value was “with no effect”.
In the case of T99A, the “effect of a mutation on the interaction” value is reported as “with no effect”.
For T99E, the “effect of a mutation on the interaction” value was “disrupting interaction strength”.
For T99K, the “effect of a mutation on the interaction” value was “with no effect”.
K100A was tested, and the “effect of a mutation on the interaction” value was “with no effect”.
With K100E the “effect of a mutation on the interaction” value was “with no effect”.
C101A was tested, and the “effect of a mutation on the interaction” value was “with no effect”.
For C101E, the “effect of a mutation on the interaction” value was “with no effect”.
In the case of C101K, the “effect of a mutation on the interaction” value is reported as “with no effect”.
With N102A the “effect of a mutation on the interaction” value was “with no effect”.
N102E was tested, and the “effect of a mutation on the interaction” value was “with no effect”.
N102K was tested, and the “effect of a mutation on the interaction” value was “with no effect”.
With S103A the “effect of a mutation on the interaction” value was “with no effect”.
In the case of S103E, the “effect of a mutation on the interaction” value is reported as “with no effect”.
With S103K the “effect of a mutation on the interaction” value was “with no effect”.
T104A was tested, and the “effect of a mutation on the interaction” value was “with no effect”.
T104E was tested, and the “effect of a mutation on the interaction” value was “with no effect”.
With T104I the “effect of a mutation on the interaction” value was “disrupting interaction strength”.
For T104K, the “effect of a mutation on the interaction” value was “with no effect”.
In the case of R105A, the “effect of a mutation on the interaction” value is reported as “with no effect”.
R105E was tested, and the “effect of a mutation on the interaction” value was “with no effect”.
For R105K, the “effect of a mutation on the interaction” value was “with no effect”.
With F106A the “effect of a mutation on the interaction” value was “with no effect”.
In the case of F106E, the “effect of a mutation on the interaction” value is reported as “with no effect”.
For F106K, the “effect of a mutation on the interaction” value was “with no effect”.
E107A was tested, and the “effect of a mutation on the interaction” value was “with no effect”.
For E107K, the “effect of a mutation on the interaction” value was “with no effect”.
F108A was tested, and the “effect of a mutation on the interaction” value was “with no effect”.
F108E was tested, and the “effect of a mutation on the interaction” value was “disrupting interaction strength”.
With F108K the “effect of a mutation on the interaction” value was “with no effect”.
For I109A, the “effect of a mutation on the interaction” value was “with no effect”.
In the case of I109E, the “effect of a mutation on the interaction” value is reported as “with no effect”.
I109K was tested, and the “effect of a mutation on the interaction” value was “with no effect”.
In the case of F110A, the “effect of a mutation on the interaction” value is reported as “with no effect”.
For F110E, the “effect of a mutation on the interaction” value was “with no effect”.
For F110K, the “effect of a mutation on the interaction” value was “with no effect”.
With T111A the “effect of a mutation on the interaction” value was “with no effect”.
In the case of T111E, the “effect of a mutation on the interaction” value is reported as “with no effect”.
In the case of T111K, the “effect of a mutation on the interaction” value is reported as “with no effect”.
With N112A the “effect of a mutation on the interaction” value was “with no effect”.
In the case of N112E, the “effect of a mutation on the interaction” value is reported as “with no effect”.
N112K was tested, and the “effect of a mutation on the interaction” value was “with no effect”.
With L113A the “effect of a mutation on the interaction” value was “with no effect”.
L113E was tested, and the “effect of a mutation on the interaction” value was “with no effect”.
In the case of L113K, the “effect of a mutation on the interaction” value is reported as “with no effect”.
With V114A the “effect of a mutation on the interaction” value was “with no effect”.
For V114E, the “effect of a mutation on the interaction” value was “with no effect”.
For V114K, the “effect of a mutation on the interaction” value was “with no effect”.
P115A was tested, and the “effect of a mutation on the interaction” value was “with no effect”.
In the case of P115E, the “effect of a mutation on the interaction” value is reported as “with no effect”.
In the case of P115K, the “effect of a mutation on the interaction” value is reported as “with no effect”.
With G116A the “effect of a mutation on the interaction” value was “with no effect”.
For G116E, the “effect of a mutation on the interaction” value was “with no effect”.
In the case of G116K, the “effect of a mutation on the interaction” value is reported as “with no effect”.
In the case of S117A, the “effect of a mutation on the interaction” value is reported as “with no effect”.
In the case of S117E, the “effect of a mutation on the interaction” value is reported as “with no effect”.
With S117K the “effect of a mutation on the interaction” value was “with no effect”.
In the case of P118A, the “effect of a mutation on the interaction” value is reported as “with no effect”.
